From paper PMC7610968 (Molecular cell, 2007)

Molecular target: T1, szz-tagged mutant Rrp44-cat protein (S. cerevisiae, UniProt Q08162 1-1001, D551N)
T1 sequence (looked up): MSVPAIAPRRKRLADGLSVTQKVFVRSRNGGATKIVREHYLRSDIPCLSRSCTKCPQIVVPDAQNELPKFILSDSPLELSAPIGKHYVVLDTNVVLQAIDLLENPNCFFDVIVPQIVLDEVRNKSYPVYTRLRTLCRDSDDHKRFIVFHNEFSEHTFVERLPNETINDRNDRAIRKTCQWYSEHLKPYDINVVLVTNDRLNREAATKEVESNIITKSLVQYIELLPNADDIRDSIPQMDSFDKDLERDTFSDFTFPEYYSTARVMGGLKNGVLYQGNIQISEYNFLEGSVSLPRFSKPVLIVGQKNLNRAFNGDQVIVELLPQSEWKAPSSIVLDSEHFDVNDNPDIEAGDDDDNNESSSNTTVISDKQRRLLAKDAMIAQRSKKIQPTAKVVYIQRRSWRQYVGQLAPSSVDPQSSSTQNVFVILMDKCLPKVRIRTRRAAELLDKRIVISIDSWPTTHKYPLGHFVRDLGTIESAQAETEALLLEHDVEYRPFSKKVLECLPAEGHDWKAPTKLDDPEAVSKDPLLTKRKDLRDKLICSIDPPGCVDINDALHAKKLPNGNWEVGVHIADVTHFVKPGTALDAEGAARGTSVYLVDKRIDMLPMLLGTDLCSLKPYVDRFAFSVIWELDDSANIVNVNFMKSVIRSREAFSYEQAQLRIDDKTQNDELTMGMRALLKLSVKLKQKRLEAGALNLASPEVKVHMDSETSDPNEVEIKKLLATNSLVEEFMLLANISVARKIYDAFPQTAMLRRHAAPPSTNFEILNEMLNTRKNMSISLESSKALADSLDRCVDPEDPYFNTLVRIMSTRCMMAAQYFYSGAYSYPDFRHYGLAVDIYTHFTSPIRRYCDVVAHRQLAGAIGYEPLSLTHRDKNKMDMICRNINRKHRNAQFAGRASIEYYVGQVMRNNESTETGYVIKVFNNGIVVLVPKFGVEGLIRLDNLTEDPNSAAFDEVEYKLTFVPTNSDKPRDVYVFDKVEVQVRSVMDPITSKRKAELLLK
Test: co-IP

B1: Rrp6 (natural protein, UniProt Q12149 1-733, looked up)
chain: MTSENPDVLLSRVINVVRAASSLASQDVDFYKNLDRGFSKDLKSKADKLADMANEIILSIDEHHESFELKEEDISDLWNNFGNIMDNLLEMSDHSLDKLNCAINSKSRGSDLQYLGEFSGKNFSPTKRVEKPQLKFKSPIDNSESHPFIPLLKEKPNALKPLSESLRLVDDDENNPSHYPHPYEYEIDHQEYSPEILQIREEIPSKSWDDSVPIWVDTSTELESMLEDLKNTKEIAVDLEHHDYRSYYGIVCLMQISTRERDYLVDTLKLRENLHILNEVFTNPSIVKVFHGAFMDIIWLQRDLGLYVVGLFDTYHASKAIGLPRHSLAYLLENFANFKTSKKYQLADWRIRPLSKPMTAYARADTHFLLNIYDQLRNKLIESNKLAGVLYESRNVAKRRFEYSKYRPLTPSSEVYSPIEKESPWKILMYQYNIPPEREVLVRELYQWRDLIARRDDESPRFVMPNQLLAALVAYTPTDVIGVVSLTNGVTEHVRQNAKLLANLIRDALRNIKNTNEEATPIPSSETKADGILLETISVPQIRDVMERFSVLCNSNISKSRAKPVTNSSILLGKILPREEHDIAYSKDGLPNKVKTEDIRIRAQNFKSALANLEDIIFEIEKPLVVPVKLEEIKTVDPASAPNHSPEIDNLDDLVVLKKKNIQKKQPAKEKGVTEKDAVDYSKIPNILSNKPGQNNRQQKKRRFDPSSSDSNGPRAAKKRRPAAKGKNLSFKR
fold recovered against wild-type Rrp44-szz: ~2 fold
